# Measurements published in the supplement of paper PMC9112550, “Optimization of the antimicrobial peptide Bac7 by deep mutational scanning” (BMC Biology, 2022).
# Test system: Escherichia coli TOP10
# Experiment: shrunken log2 fold change of peptide-encoding DNA abundance (4.5 h post-induction vs induction); higher = less antimicrobial activity (less host growth inhibition)
# Settings: time post-induction: 4.5 h; library: site-saturation at positions 5, 18, 19, 20
# 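Further: peptides expressed intracellularly from a pBAD plasmid library in pooled LB shake-flask culture, induced with 0.3% L-arabinose, DNA abundance read by NGS, three biological replicates, DESeq2 with apeglm shrinkage.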
row,Sequence,shrunken log2 fold change
1,RRIRQRPPRLPRPRPRPVDMPRP,-0.108
2,RRIRSRPPRLPRPRPRPRMDPRP,-0.291
3,RRIRGRPPRLPRPRPRPILPPRP,0.0676
4,RRIRHRPPRLPRPRPRPLWKPRP,-0.102
5,RRIRRRPPRLPRPRPRPHYPPRP,0.158
6,RRIRHRPPRLPRPRPRPPFMPRP,0.0707
7,RRIRQRPPRLPRPRPRPSKSPRP,-0.332
8,RRIRLRPPRLPRPRPRPWWIPRP,-0.107
9,RRIRHRPPRLPRPRPRPFCDPRP,0.128
10,RRIRTRPPRLPRPRPRPWYTPRP,-0.555
11,RRIRARPPRLPRPRPRPYRMPRP,0.0568
12,RRIRKRPPRLPRPRPRPWTSPRP,-0.113
13,RRIRTRPPRLPRPRPRPDLIPRP,-0.0343
14,RRIRRRPPRLPRPRPRPTNWPRP,0.37
15,RRIRDRPPRLPRPRPRPCNPPRP,-0.13
16,RRIRVRPPRLPRPRPRPMGFPRP,0.034
17,RRIRQRPPRLPRPRPRPMSVPRP,0.0173
18,RRIRQRPPRLPRPRPRPQMWPRP,0.0113
19,RRIRSRPPRLPRPRPRPGINPRP,0.00688
20,RRIRCRPPRLPRPRPRPCGMPRP,0.119
21,RRIRDRPPRLPRPRPRPNRHPRP,-0.327
22,RRIRERPPRLPRPRPRPEPIPRP,-0.00736
23,RRIRYRPPRLPRPRPRPWKLPRP,-0.121
24,RRIRNRPPRLPRPRPRPYTFPRP,-0.0167
25,RRIRDRPPRLPRPRPRPHHKPRP,-0.397

row,Sequence,shrunken log2 fold change
1,RRIRKRPPRLPRPRPRPNVEPRP,0.192
2,RRIRERPPRLPRPRPRPGFNPRP,0.0108
3,RRIRERPPRLPRPRPRPPKWPRP,-0.176
4,RRIRQRPPRLPRPRPRPMIAPRP,-0.00222
5,RRIRNRPPRLPRPRPRPWHRPRP,0.049
6,RRIRWRPPRLPRPRPRPNLPPRP,-0.101
7,RRIRTRPPRLPRPRPRPPNGPRP,0.104
8,RRIRFRPPRLPRPRPRPSSWPRP,-0.105
9,RRIRKRPPRLPRPRPRPMVEPRP,0.0956
10,RRIRVRPPRLPRPRPRPCLPPRP,-0.219
11,RRIRCRPPRLPRPRPRPWCSPRP,-0.321
12,RRIRNRPPRLPRPRPRPETVPRP,-0.00716
13,RRIRRRPPRLPRPRPRPTPAPRP,1.55
14,RRIRRRPPRLPRPRPRPCTNPRP,0.0186
15,RRIRNRPPRLPRPRPRPTGQPRP,-0.115
16,RRIRIRPPRLPRPRPRPVQIPRP,0.072
17,RRIRERPPRLPRPRPRPCCTPRP,-0.243
18,RRIRYRPPRLPRPRPRPCRVPRP,0.00293
19,RRIRRRPPRLPRPRPRPNMFPRP,-0.047
20,RRIRKRPPRLPRPRPRPMDKPRP,0.166
21,RRIRLRPPRLPRPRPRPRGWPRP,0.722
22,RRIRCRPPRLPRPRPRPCGAPRP,0.285
23,RRIRGRPPRLPRPRPRPQAIPRP,0.58
24,RRIRYRPPRLPRPRPRPNWGPRP,-0.0851
25,RRIRNRPPRLPRPRPRPPCRPRP,-0.0266

row,Sequence,shrunken log2 fold change
1,RRIRMRPPRLPRPRPRPSSSPRP,0.0411
2,RRIRERPPRLPRPRPRPDMFPRP,-0.0153
3,RRIRIRPPRLPRPRPRPQAGPRP,-0.16
4,RRIRYRPPRLPRPRPRPGYQPRP,-0.241
5,RRIRNRPPRLPRPRPRPKCLPRP,0.0771
6,RRIRVRPPRLPRPRPRPELGPRP,0.308
7,RRIRGRPPRLPRPRPRPTTQPRP,0.429
8,RRIRYRPPRLPRPRPRPFDYPRP,-0.184
9,RRIRFRPPRLPRPRPRPEGLPRP,-0.0574
10,RRIRVRPPRLPRPRPRPVCVPRP,-0.0658
11,RRIRARPPRLPRPRPRPIHLPRP,-0.633
12,RRIRDRPPRLPRPRPRPREAPRP,-0.0547
13,RRIRMRPPRLPRPRPRPFKTPRP,-0.117
14,RRIRHRPPRLPRPRPRPIINPRP,-0.324
15,RRIRQRPPRLPRPRPRPQDLPRP,-0.243
16,RRIRRRPPRLPRPRPRPAIKPRP,0.304
17,RRIRERPPRLPRPRPRPMKEPRP,-0.0276
18,RRIRARPPRLPRPRPRPAPLPRP,0.367
19,RRIRTRPPRLPRPRPRPPWPPRP,0.356
20,RRIRYRPPRLPRPRPRPILVPRP,-0.237
21,RRIRLRPPRLPRPRPRPLVTPRP,0.000277
22,RRIRRRPPRLPRPRPRPYHFPRP,-0.116
23,RRIRRRPPRLPRPRPRPERIPRP,0.0278
24,RRIRMRPPRLPRPRPRPRQIPRP,1.19
25,RRIRNRPPRLPRPRPRPWDVPRP,-0.0115

row,Sequence,shrunken log2 fold change
1,RRIRRRPPRLPRPRPRPQQAPRP,0.115
2,RRIRIRPPRLPRPRPRPAPCPRP,-0.0838
3,RRIRPRPPRLPRPRPRPPPRPRP,0.91
4,RRIRIRPPRLPRPRPRPNWYPRP,-0.519
5,RRIRLRPPRLPRPRPRPYDTPRP,-0.925
6,RRIRMRPPRLPRPRPRPGKMPRP,0.137
7,RRIRCRPPRLPRPRPRPYSLPRP,-0.258
8,RRIRGRPPRLPRPRPRPDHPPRP,-0.0241
9,RRIRLRPPRLPRPRPRPWVCPRP,-0.0462
10,RRIRRRPPRLPRPRPRPETIPRP,0.175
11,RRIRMRPPRLPRPRPRPRYDPRP,0.185
12,RRIRWRPPRLPRPRPRPCYIPRP,-0.46
13,RRIRTRPPRLPRPRPRPGTSPRP,-0.043
14,RRIRRRPPRLPRPRPRPHHRPRP,0.0911
15,RRIRRRPPRLPRPRPRPYTVPRP,-0.325
16,RRIRRRPPRLPRPRPRPQNMPRP,-0.472
17,RRIRGRPPRLPRPRPRPTMWPRP,0.757
18,RRIRWRPPRLPRPRPRPNMRPRP,0.0208
19,RRIRNRPPRLPRPRPRPTYIPRP,-0.603
20,RRIRWRPPRLPRPRPRPMMWPRP,0.0342
21,RRIRVRPPRLPRPRPRPHWHPRP,-0.0411
22,RRIRERPPRLPRPRPRPETHPRP,0.178
23,RRIRMRPPRLPRPRPRPFNEPRP,-0.488
24,RRIRYRPPRLPRPRPRPLYPPRP,-0.929
25,RRIRLRPPRLPRPRPRPTFDPRP,-0.173

row,Sequence,shrunken log2 fold change
1,RRIRRRPPRLPRPRPRPIREPRP,0.208
2,RRIRIRPPRLPRPRPRPCMLPRP,-0.61
3,RRIRERPPRLPRPRPRPCMMPRP,-0.058
4,RRIRARPPRLPRPRPRPGGWPRP,1.26
5,RRIRTRPPRLPRPRPRPEGGPRP,0.203
6,RRIRNRPPRLPRPRPRPDARPRP,0.222
7,RRIRLRPPRLPRPRPRPGPVPRP,0.753
8,RRIRIRPPRLPRPRPRPEHSPRP,0.0398
9,RRIRTRPPRLPRPRPRPRYNPRP,-0.712
10,RRIRERPPRLPRPRPRPFLHPRP,-0.332
11,RRIRARPPRLPRPRPRPISSPRP,-0.102
12,RRIRYRPPRLPRPRPRPGLIPRP,-0.0546
13,RRIRIRPPRLPRPRPRPYVIPRP,-0.017
14,RRIRWRPPRLPRPRPRPTPHPRP,0.427
15,RRIRIRPPRLPRPRPRPKYTPRP,-0.686
16,RRIRARPPRLPRPRPRPPYDPRP,0.0295
17,RRIRERPPRLPRPRPRPHSQPRP,0.061
18,RRIRGRPPRLPRPRPRPPLFPRP,0.974
19,RRIRQRPPRLPRPRPRPLLTPRP,-0.235
20,RRIRGRPPRLPRPRPRPWFDPRP,-0.0883
21,RRIRDRPPRLPRPRPRPPLRPRP,0.271
22,RRIRVRPPRLPRPRPRPPYSPRP,-0.384
23,RRIRERPPRLPRPRPRPKHMPRP,-0.21
24,RRIRRRPPRLPRPRPRPDPTPRP,0.77
25,RRIRTRPPRLPRPRPRPQAWPRP,4.37
